Like-named read-outs stand apart in the source and are kept apart here.
Columns and labels:
Assay in all cases: ELISA; Tie2-Fc coated at 1 ug/mL, chemiluminescence
[1] = target: T1, Human Tie2 (1-452)r2-Fc (human, UniProt Q02763 23-452)
T1 construct: range 1-452
Method: (§1) The next day, the immobilized solution was removed, and the plate was washed with a TBS-T solution, and incubated for 60 minutes by the addition of 50 μL of a Blocker™ Casein in TBS (Thermo Fisher Scientific Inc., 37532) to perform blocking. The resultant was washed with a TBS-T solution, and TIE-1-Igγ1-LALA, diluted with 0.05% Tween 20 (Nacalai Tesque Inc., 28353-85)—containing Blocker™ Casein in TBS from 0.03 ng/mL to 100 ng/mL through eight steps, was added thereto in the amount of 20 μL per well. The resultant was incubated at room temperature for 90 minutes and then washed with a TBS-T solution three times, and 20 μL of a biotin-labeled anti-human kappa light chain antibody, which had been diluted to 0.1 μg/mL with 0.05% Tween 20-containing Blocker™ Casein in TBS, was added thereto. The resultant was incubated at room temperature for 60 minutes and then washed with a TBS-T solution three times, and 20 μL of alkaline phosphatase-labeled streptavidin, which had been diluted to 0.1 μg/mL with 0.05% Tween 20-containing Blocker™ Casein in TBS, was added thereto. The resultant was incubated at room temperature for 60 minutes and then washed with a TBS-T solution three times, and 50 μL of Chemiluminescent Ultra Sensitive AP Microwell and/or Membrane Substrate (450 nm), which had been 5-fold diluted with 1 mM MgCl₂-containing 20 mM TBS (pH 9.8) as a substrate, was added thereto. The resultant was incubated at room temperature under light-shielding for 40 minutes, and then luminescent intensity thereof was measured with an EnVision™ multi-label counter. The EC₅₀ value of TIE-1-Igγ1-LALA with respect to the human Tie2 (1-452)-Fc chimeric protein and 23 mutant proteins thereof were calculated. The relative value of luminescent intensity of 100 ng/mL TIE-1-Igγ1-LALA as maximum concentration point with respect to human Tie2 (1-452)-Fc chimeric protein and 23 mutant proteins thereof when the convergence value of the sigmoid curve of TIE-1-Igγ1-LALA binding to the human Tie2 (1-452)-Fc chimeric protein which was taken as 100% was calculated (Table 8 and Table 9). Further, the EC₅₀ value and the convergence value were calculated by Sigmoid-Emax model non-linear regression analysis.

[2] = target: T2, Human Tie2 (1-452)r3-Fc (human, UniProt Q02763 23-452)
T2 construct: range 1-452
Method: as §1

[3] = target: T3, Human Tie2 (1-452)r4-Fc (human, UniProt Q02763 23-452)
T3 construct: range 1-452
Method: as §1

[4] = target: T4, Human Tie2 (1-452)r5-Fc (human, UniProt Q02763 23-452)
T4 construct: range 1-452
Method: as §1

[5] = target: T5, Human Tie2 (1-452)r6-Fc (human, UniProt Q02763 23-452)
T5 construct: range 1-452
Method: as §1

[6] = target: T6, Human Tie2 (1-452)g1-Fc (human, UniProt Q02763 23-452)
T6 construct: range 1-452
Method: as §1

[7] = target: T7, Human Tie2 (1-452)g2-Fc (human, UniProt Q02763 23-452)
T7 construct: range 1-452
Method: as §1

[8] = target: T8, Human Tie2 (1-452)g4-Fc (human, UniProt Q02763 23-452)
T8 construct: range 1-452
Method: as §1

[9] = target: T9, Human Tie2 (1-452)g5-Fc (human, UniProt Q02763 23-452)
T9 construct: range 1-452
Method: as §1

[10] = target: T10, Human Tie2 (1-452)g6-Fc (human, UniProt Q02763 23-452)
T10 construct: range 1-452
Method: as §1

[11] = target: T11, Human Tie2 (1-452)m1-Fc (human, UniProt Q02763 23-452)
T11 construct: range 1-452
Method: as §1

[12] = target: T12, Human Tie2 (1-452)m3-Fc (human, UniProt Q02763 23-452)
T12 construct: range 1-452
Method: as §1

[13] = target: T13, Human Tie2 (1-452)y1-Fc (human, UniProt Q02763 23-452)
T13 construct: range 1-452
Method: as §1

[14] = target: T14, Human Tie2 (1-452)c1-Fc (human, UniProt Q02763 23-452)
T14 construct: range 1-452
Method: as §1

[15] = target: T15, human Tie2 (1-452)-Fc chimeric protein (human, UniProt Q02763 23-452)
T15 construct: range 1-452; The stated range 1-452 begins at residue 1 of the precursor
Method: as §1

[16] = target: T16, Human Tie2 (1-452)r1-Fc (human, UniProt Q02763 23-452)
T16 construct: range 1-452
Method: as §1

[17] = target: T17, Human Tie2 (1-452)A1-Fc (human, UniProt Q02763 23-452)
T17 construct: range 1-452
Method: as §1

[18] = target: T18, Human Tie2 (1-452)A2-Fc (human, UniProt Q02763 23-452)
T18 construct: range 1-452
Method: as §1

[19] = target: T19, Human Tie2 (1-452)A3-Fc (human, UniProt Q02763 23-452)
T19 construct: range 1-452
Method: as §1

[20] = target: T15, human Tie2 (1-452)-Fc chimeric protein; remark: listed apart in the source
Method: as §1

T15 sequence (Q02763 other isoform, or with tags, fused parts or gaps mutant limits assumed, form in doubt): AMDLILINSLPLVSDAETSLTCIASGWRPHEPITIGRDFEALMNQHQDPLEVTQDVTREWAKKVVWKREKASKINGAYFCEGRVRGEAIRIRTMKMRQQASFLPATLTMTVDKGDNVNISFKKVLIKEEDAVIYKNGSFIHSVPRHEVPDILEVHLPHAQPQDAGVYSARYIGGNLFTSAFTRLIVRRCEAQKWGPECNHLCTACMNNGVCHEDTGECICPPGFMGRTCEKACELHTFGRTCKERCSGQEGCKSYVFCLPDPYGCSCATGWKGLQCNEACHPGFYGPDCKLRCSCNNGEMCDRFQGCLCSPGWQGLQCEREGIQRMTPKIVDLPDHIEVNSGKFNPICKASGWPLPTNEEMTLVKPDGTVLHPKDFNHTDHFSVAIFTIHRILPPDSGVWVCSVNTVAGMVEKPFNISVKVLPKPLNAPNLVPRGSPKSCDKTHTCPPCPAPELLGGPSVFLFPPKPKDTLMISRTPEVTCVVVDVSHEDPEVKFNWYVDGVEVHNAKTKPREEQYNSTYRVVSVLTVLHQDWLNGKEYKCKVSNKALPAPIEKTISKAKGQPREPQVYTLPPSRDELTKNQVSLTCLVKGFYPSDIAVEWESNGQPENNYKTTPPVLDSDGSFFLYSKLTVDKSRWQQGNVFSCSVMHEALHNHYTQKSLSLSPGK
T3 sequence (Q02763 other isoform, or with tags, fused parts or gaps limits assumed, form in doubt): as the sequence (Q02763 other isoform, or with tags, fused parts or gaps mutant limits assumed, form in doubt) above, with H146A counted along it
T4 sequence (Q02763 other isoform, or with tags, fused parts or gaps limits assumed, form in doubt): as the sequence (Q02763 other isoform, or with tags, fused parts or gaps mutant limits assumed, form in doubt) above, with E147A counted along it
T16 sequence (Q02763 other isoform, or with tags, fused parts or gaps limits assumed, form in doubt): as the sequence (Q02763 other isoform, or with tags, fused parts or gaps mutant limits assumed, form in doubt) above, with R145A, H146A, E147A counted along it
T14 sequence (Q02763 other isoform, or with tags, fused parts or gaps limits assumed, form in doubt): as the sequence (Q02763 other isoform, or with tags, fused parts or gaps mutant limits assumed, form in doubt) above, with R28A, H30A, E31A, P32A counted along it
T9 sequence (Q02763 other isoform, or with tags, fused parts or gaps limits assumed, form in doubt): as the sequence (Q02763 other isoform, or with tags, fused parts or gaps mutant limits assumed, form in doubt) above, with N175A counted along it

B1: TIE-1-Igγ1-LALA (antibody, human IgG1, kappa, L234A L235A)
heavy: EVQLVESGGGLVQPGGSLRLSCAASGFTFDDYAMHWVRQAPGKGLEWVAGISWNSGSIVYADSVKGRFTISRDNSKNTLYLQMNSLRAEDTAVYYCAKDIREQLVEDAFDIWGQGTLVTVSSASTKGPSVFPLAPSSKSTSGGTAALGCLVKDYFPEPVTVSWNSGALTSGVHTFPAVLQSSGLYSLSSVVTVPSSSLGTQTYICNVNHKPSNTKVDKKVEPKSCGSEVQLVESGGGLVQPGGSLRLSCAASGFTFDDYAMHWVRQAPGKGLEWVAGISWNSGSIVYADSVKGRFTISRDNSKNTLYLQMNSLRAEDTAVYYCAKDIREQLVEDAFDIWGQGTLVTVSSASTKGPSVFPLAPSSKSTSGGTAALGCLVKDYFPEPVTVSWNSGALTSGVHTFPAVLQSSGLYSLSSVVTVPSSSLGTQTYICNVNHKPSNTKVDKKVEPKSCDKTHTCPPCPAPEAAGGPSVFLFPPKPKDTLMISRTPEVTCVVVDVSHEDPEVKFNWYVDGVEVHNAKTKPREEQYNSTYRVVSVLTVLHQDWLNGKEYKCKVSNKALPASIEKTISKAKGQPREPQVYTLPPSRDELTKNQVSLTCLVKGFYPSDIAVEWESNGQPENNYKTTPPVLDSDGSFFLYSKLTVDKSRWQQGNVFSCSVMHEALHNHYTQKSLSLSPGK
light: DIQMTQSPSSLSASVGDRVTITCRSSQSLLHSHRYNYLDWYQQKPGKAPKLLIYLGSNRASGVPSRFSGSGSGTDFTLTISSVQPEDFATYYCMQTLQTPLTFGQGTKVEIKRTVAAPSVFIFPPSDEQLKSGTASVVCLLNNFYPREAKVQWKVDNALQSGNSQESVTEQDSKDSTYSLSSTLTLSKADYEKHKVYACEVTHQGLSSPVTKSFNRGEC
notes: Tandem tetravalent format: two heavy chains (VH-CH1-linker-VH-CH1-CH2-CH3) and four light chains; also called tetravalent anti-human Tie2 antibody with L234A, L235A and P331S
**Q.** Which results are given for B1?
**A.** EC50 [1]: 0.9 ng/mL; EC50 [2]: 1 ng/mL; EC50 [3]: 1 ng/mL; EC50 [4]: 1 ng/mL; EC50 [5]: 1 ng/mL; EC50 [6]: 0.0123 µg/mL; EC50 [7]: 5.5 ng/mL; EC50 [8]: 0.018 µg/mL; EC50 [9]: 2.2 ng/mL; EC50 [10]: 1.3 ng/mL; EC50 [11]: 1 ng/mL; EC50 [12]: 1 ng/mL; EC50 [13]: 1 ng/mL; EC50 [14]: 1 ng/mL; EC50 [15]: 1.1 ng/mL; EC50 [16]: 1.1 ng/mL; EC50 [17]: 1.3 ng/mL; EC50 [18]: 1.3 ng/mL; EC50 [19]: 1 ng/mL; EC50 [20]: 1 ng/mL

From patent US20160222130A1 (Astellas, published 2016)
